Reference: the Human Domainome abundance scans (Beltran et al. 2025)
± gives the uncertainty stated by the source.

B1: Chromodomain-helicase-DNA-binding protein 7, residues 2564 to 2605; numbered along this chain, Q9P2D1 (parent)
chain: DPDTRIPVINLEDGTRLVGEDAPKNKDLVEWLKLHPTYTVDM

Variants of: B1
Experiment: abundance fitness (aPCA) (normalised: wild type 0, dead -1); higher = more abundant; growth selection in yeast, the domain comes from the species named
Conditions: Homo sapiens

Abundance fitness, by site and new letter:
W31: S -0.38 ± 0.084 | F 0.223 ± 0.094 | Q -0.569 ± 0.16 | D -0.128 ± 0.065 | P -0.141 ± 0.082 | V -0.336 ± 0.059 | G -0.163 ± 0.046 | E -0.099 ± 0.14 | I -0.463 ± 0.086 | M -0.196 ± 0.11 | R -0.363 ± 0.072 | Y -0.297 ± 0.064
D27: I -0.438 ± 0.12 | K -0.517 ± 0.18 | R -0.649 ± 0.073 | G -0.38 ± 0.052 | P -0.88 ± 0.1 | L -0.678 ± 0.076 | F -0.405 ± 0.077 | N 0.019 ± 0.056 | S -1.11 ± 0.3 | C -0.175 ± 0.089 | M -0.727 ± 0.082 | T -0.526 ± 0.094
P23: L -0.725 ± 0.075 | H -0.679 ± 0.081 | R -0.843 ± 0.11 | F -0.784 ± 0.12
R16: V 0.059 ± 0.072 | S 0.132 ± 0.047 | N -0.128 ± 0.12 | K 0.06 ± 0.17
L11: D 0.067 ± 0.095 | T 0.353 ± 0.067 | K 0.005 ± 0.11
T39: H -0.186 ± 0.056 | N -0.162 ± 0.064 | S -0.038 ± 0.072 | F -0.639 ± 0.11 | L -0.42 ± 0.056 | Y -0.347 ± 0.078 | W -0.835 ± 0.12 | R 0.002 ± 0.06 | E 0.046 ± 0.078
G14: N 0.152 ± 0.1 | M 0.114 ± 0.071 | A -0.115 ± 0.08 | S -0.141 ± 0.071 | T -0.275 ± 0.14
I9: G -0.159 ± 0.063 | D -0.345 ± 0.12 | T -0.012 ± 0.095 | S -0.098 ± 0.091
D21: Y -0.165 ± 0.06 | A -0.279 ± 0.093 | P -0.378 ± 0.15 | F -0.17 ± 0.073 | C -0.07 ± 0.091 | M -0.161 ± 0.078 | I -0.512 ± 0.12 | R -0.316 ± 0.065 | T -0.246 ± 0.12 | W -0.442 ± 0.17 | H -0.109 ± 0.079
A22: H -0.306 ± 0.26 | S -0.358 ± 0.051 | C -0.168 ± 0.057 | R -0.477 ± 0.052 | E -0.839 ± 0.14 | V -0.79 ± 0.077
P2: H -0.737 ± 0.18 | F -0.513 ± 0.24 | G -0.074 ± 0.066 | S 0.017 ± 0.062 | W -0.02 ± 0.06
L34: G -0.047 ± 0.045 | I -0.417 ± 0.099 | Y -0.251 ± 0.052 | E 0.048 ± 0.07
Y38: S -0.297 ± 0.076 | W 0.085 ± 0.12 | F -0.128 ± 0.059 | I -1.02 ± 0.099 | E -0.387 ± 0.073 | L -0.632 ± 0.082 | N -0.459 ± 0.073 | C -0.445 ± 0.057 | P -0.916 ± 0.46 | G -0.327 ± 0.05
D1: Y -0.298 ± 0.12 | L -0.43 ± 0.062 | V -0.184 ± 0.063 | G -0.901 ± 0.1 | R -1 ± 0.11 | F 0.073 ± 0.29
V40: I -0.135 ± 0.071 | S -0.144 ± 0.051 | A 0.135 ± 0.1 | R -0.065 ± 0.047 | F -0.59 ± 0.079 | C -0.152 ± 0.067 | K -0.11 ± 0.054 | Q -0.108 ± 0.097 | T -0.08 ± 0.065 | D -0.295 ± 0.07
M42: W -0.438 ± 0.26 | F -0.244 ± 0.087 | Y -0.027 ± 0.069 | I -0.189 ± 0.097 | L -0.172 ± 0.07 | S 0.111 ± 0.06 | G -0.096 ± 0.15 | R -0.092 ± 0.3
V8: K -0.387 ± 0.17 | Y -0.894 ± 0.12 | H -0.577 ± 0.11 | D -0.511 ± 0.16
H35: F -0.744 ± 0.074 | Y -0.593 ± 0.072 | Q -0.56 ± 0.099
D41: V -0.793 ± 0.055 | P -0.453 ± 0.12 | A -0.396 ± 0.064 | E -0.179 ± 0.079 | T -0.586 ± 0.063 | N -0.343 ± 0.058
D3: L -0.122 ± 0.052 | A -0.283 ± 0.052 | G -0.384 ± 0.053 | H 0.089 ± 0.087 | Q -0.109 ± 0.073 | R -0.256 ± 0.055 | S -0.137 ± 0.051
P7: N -0.145 ± 0.22 | K 0.082 ± 0.13 | R 0.064 ± 0.14 | G 0.227 ± 0.096 | T -0.046 ± 0.34 | D 0.133 ± 0.13
L32: N -0.342 ± 0.068 | C -0.343 ± 0.079 | R -0.332 ± 0.078 | G -0.214 ± 0.05 | V -0.586 ± 0.085 | S -0.255 ± 0.064 | W -0.574 ± 0.075 | E -0.324 ± 0.074
P36: N -0.36 ± 0.066 | R -0.401 ± 0.07 | S -0.457 ± 0.066 | C -0.78 ± 0.067 | Q -0.461 ± 0.13 | L -0.81 ± 0.096
D13: L -0.627 ± 0.27 | H -1.01 ± 0.3
T37: L -0.159 ± 0.073 | R -0.05 ± 0.064 | Q -0.273 ± 0.14 | D -0.09 ± 0.06 | G 0.022 ± 0.054 | F -0.727 ± 0.077 | W -0.231 ± 0.11 | S -0.058 ± 0.065
K26: A -0.068 ± 0.072 | R -0.081 ± 0.047 | Y -0.481 ± 0.072 | T -0.361 ± 0.078 | P -0.56 ± 0.08 | W -0.639 ± 0.1 | C -0.166 ± 0.056
T15: H -0.128 ± 0.19 | M -0.264 ± 0.15 | K 0.051 ± 0.21 | A 0.069 ± 0.082 | D 0.018 ± 0.096 | R 0.064 ± 0.1 | F -0.218 ± 0.087 | P -0.252 ± 0.16
R5: G -0.374 ± 0.082 | V -0.372 ± 0.13 | F -0.451 ± 0.083 | Q -0.493 ± 0.25 | K 0.124 ± 0.095 | D -0.709 ± 0.16 | P -0.004 ± 0.22
L17: I -0.012 ± 0.072 | V -0.17 ± 0.055 | T -0.308 ± 0.12 | D -0.41 ± 0.064 | G -0.371 ± 0.056 | E -0.321 ± 0.12 | W -0.527 ± 0.08 | S -0.421 ± 0.06 | R -0.046 ± 0.064 | N -0.351 ± 0.17
N10: L -1.01 ± 0.076 | K -0.341 ± 0.065 | Q -0.738 ± 0.24 | S -0.025 ± 0.056 | F -0.85 ± 0.065 | V -0.852 ± 0.086
N25: C -0.274 ± 0.061 | T -0.131 ± 0.076 | M -0.086 ± 0.092 | D -0.122 ± 0.067 | P -0.4 ± 0.12 | W -0.418 ± 0.066
K33: L -0.17 ± 0.064 | W -0.319 ± 0.079 | G -0.215 ± 0.071 | V -0.261 ± 0.059 | F -0.339 ± 0.061
E20: C -0.264 ± 0.056 | T -0.027 ± 0.082 | L -0.369 ± 0.088 | W -0.447 ± 0.075 | S -0.159 ± 0.063 | V -0.195 ± 0.049 | R -0.189 ± 0.055 | Y -0.395 ± 0.064 | F -0.365 ± 0.085
V29: A 0.11 ± 0.068 | G -0.081 ± 0.064 | P 0.063 ± 0.083 | C -0.087 ± 0.081 | H 0.098 ± 0.073 | I -0.15 ± 0.064 | E 0.052 ± 0.1 | L -0.109 ± 0.053 | D -0.022 ± 0.087 | M -0.095 ± 0.12
E30: I -0.608 ± 0.12 | C -0.253 ± 0.072 | M -0.313 ± 0.1 | D 0.008 ± 0.063 | Q -0.187 ± 0.13 | P -0.345 ± 0.33 | S -0.023 ± 0.059 | G -0.145 ± 0.056 | T -0.022 ± 0.078 | F -0.591 ± 0.12
G19: M -0.442 ± 0.073 | V -0.64 ± 0.079 | H -0.478 ± 0.077 | E -0.093 ± 0.11 | F -0.852 ± 0.13 | D -0.125 ± 0.065 | Q -0.437 ± 0.12 | A -0.292 ± 0.11
T4: I -0.115 ± 0.14 | P -0.286 ± 0.12
V18: S 0.076 ± 0.073 | I 0.155 ± 0.079 | D 0.147 ± 0.072 | N -0.06 ± 0.063 | K -0.154 ± 0.16 | F -0.165 ± 0.079 | M 0.091 ± 0.062
I6: L -0.697 ± 0.22 | H -0.133 ± 0.23
L28: K -0.454 ± 0.14 | Y -0.499 ± 0.12 | G -0.401 ± 0.048 | T -0.355 ± 0.083
K24: L -0.099 ± 0.071 | G -0.552 ± 0.053 | R -0.188 ± 0.073 | S -0.206 ± 0.054 | I -0.165 ± 0.1
